Test results from publication PMC4915166.

Biological target: gp91^phox, the catalytic subunit of NADPH oxidase (Nox2) (mouse (endogenous in mouse microglia)) (UniProt Q61093)
Sequence (Q61093 whole entry): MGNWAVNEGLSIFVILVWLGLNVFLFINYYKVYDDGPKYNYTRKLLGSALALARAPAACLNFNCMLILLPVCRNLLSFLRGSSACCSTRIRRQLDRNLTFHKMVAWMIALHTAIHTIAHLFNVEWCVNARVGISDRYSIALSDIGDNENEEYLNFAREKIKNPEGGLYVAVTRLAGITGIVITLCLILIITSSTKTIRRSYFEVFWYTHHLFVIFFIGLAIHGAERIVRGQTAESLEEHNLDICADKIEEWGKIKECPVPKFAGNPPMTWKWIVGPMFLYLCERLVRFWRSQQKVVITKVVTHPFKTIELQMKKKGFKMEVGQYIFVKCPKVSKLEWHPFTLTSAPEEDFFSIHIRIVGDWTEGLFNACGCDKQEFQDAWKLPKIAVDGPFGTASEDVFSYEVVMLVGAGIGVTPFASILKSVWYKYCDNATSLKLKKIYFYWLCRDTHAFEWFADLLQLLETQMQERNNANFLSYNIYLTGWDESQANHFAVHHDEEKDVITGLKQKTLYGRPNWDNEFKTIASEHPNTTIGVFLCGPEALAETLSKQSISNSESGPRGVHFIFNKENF

A29-V40 α-Syn peptide (WT, unlabeled, purity >98 %) (from UniProt P37840 29-40)
extracellular superoxide released by mouse microglia (SOD-inhibitable WST-1 reduction), 1.0 μM peptide, increase over the BSA control (% increase compared to the BSA control): 129
